Columns and labels:
[1] = target: 23 amino acid synthetic M2e peptide of A/Fort Worth/1/50 (influenza A virus A/Fort Worth/1/50 (H1N1)); test: ELISA on the 23mer M2e peptide (FIG. 14b)
[2] = target: M2 protein of influenza A/Wisconsin/67/05 (H3N2), on inactivated whole virions (Influenza A virus A/Wisconsin/67/2005 (H3N2)); test: ELISA, positive control antibody on inactivated whole virions

TCN-032 (8I10) (antibody), sequence (VH): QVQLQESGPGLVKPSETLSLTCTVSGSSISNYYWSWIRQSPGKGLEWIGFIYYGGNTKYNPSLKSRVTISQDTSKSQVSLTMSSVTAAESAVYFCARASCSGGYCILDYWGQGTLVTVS
TCN-032 (8I10) (antibody), sequence (VL): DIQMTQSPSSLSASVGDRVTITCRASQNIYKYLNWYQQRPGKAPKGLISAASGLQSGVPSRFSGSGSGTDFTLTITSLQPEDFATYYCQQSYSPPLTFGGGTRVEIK

| Substance | EC50 [1] [µg/mL] | OD450 [2] [OD450] |
| --- | --- | --- |
| chimeric mouse V-region/human IgG1 kappa 14C2 antibody | 0.01 |  |
| TCN-032 (8I10) (antibody) |  | 3.62 |
